# Measurements taken from the supplement of paper PMC10567573.
# B1: FBXO3 (parent)
# chain: FIDTYSDVGRYIDHYAAIKKAWDD
# B2: SEC22B (parent)
# chain: FPKKLAFAYLEDLHSEFDEQHGKK
# Variants of: B1
# Test: protein stability index of a GFP-peptide fusion (GPS, HEK-293T) (PSI 1-6); higher = more stable
# Details: c terminus: a fixed tail appended
# 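Also: lentivirally expressed fusions sorted by FACS into six bins by GFP to DsRed ratio, PSI derived from sequencing read proportions per bin multiplied by bin number.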
row,Variant,protein stability index
1,K19C,1.55
2,K20E,2.29
3,K20T,1.61
4,K20A,2.16
5,Y15P,1.57
6,G9K,1.85
7,Y11E,1.38

# Variants of: B2
# Test: as above
# Details: c terminus: a fixed tail appended
row,Variant,protein stability index
1,L13W,2.99
2,L13P,2.61
3,L13Q,3.21
4,L13H,2.93
5,L13D,2.54
6,L13E,3.23
7,L13C,2.83
8,L13N,3.13
9,L13R,2.79
10,L13G,3.51
11,L13S,2.56
12,L13K,3.2
13,L13F,2.5
14,L13Y,2.47
15,L13M,2.3
16,L13A,3.2
17,L13I,2.62
18,L13V,2.55
19,L13T,2.79
20,H14M,2.23
21,H14F,1.91
22,H14K,2.96
23,H14T,2.89
24,H14I,1.68
25,H14G,2.57
26,H14R,2.55

row,Variant,protein stability index
1,H14N,2.46
2,H14Q,2.85
3,H14W,2.06
4,H14E,2.13
5,H14L,2.31
6,H14C,2.07
7,H14P,2.2
8,H14S,2.75
9,H14V,1.98
10,H14A,2.47
11,H14Y,2.28
12,H14D,2.53
13,F17M,2.45
14,F17L,2.54
15,F17C,2.87
16,F17S,2.64
17,F17Y,2.91
18,F17E,3.04
19,F17R,2.85
20,F17V,2.67
21,F17Q,3.28
22,F17I,2.6
23,F17K,2.98
24,F17N,2.76
25,F17A,2.68
26,F17W,2.57

row,Variant,protein stability index
1,F17T,2.99
2,F17G,2.4
3,F17D,3.03
4,F17H,2.66
5,F17P,2.75
6,D12H,2.25
7,D12M,2.39
8,D12R,1.93
9,D12I,1.72
10,D12C,1.95
11,D12P,2.33
12,D12S,2.16
13,D12Y,1.89
14,D12N,2.97
15,D12W,2.49
16,D12L,1.77
17,D12A,2.1
18,D12E,3.72
19,D12K,2.38
20,D12G,2.77
21,D12V,1.85
22,D12F,1.97
23,D12T,2.39
24,D12Q,2.22
25,S15Q,2.73
26,S15T,2.41

row,Variant,protein stability index
1,S15V,2.88
2,S15P,2.42
3,S15L,2.85
4,S15Y,2.08
5,S15D,2.89
6,S15M,2.5
7,S15K,2.54
8,S15A,2.15
9,S15C,2.25
10,S15H,2.22
11,S15R,2.41
12,S15E,2.9
13,S15F,2.15
14,S15G,2.25
15,S15N,2.67
16,S15W,2.27
17,S15I,2.25
18,F7S,3.8
19,F7T,3.33
20,F7W,1.95
21,F7Y,2.5
22,F7V,2.67
23,E11L,2.35
24,E11H,1.86
25,E11C,1.88
26,E11G,2.08

row,Variant,protein stability index
1,E11M,2.17
2,E11N,2.61
3,E11P,1.8
4,E11Y,1.98
5,E11V,1.77
6,E11T,2.64
7,E11I,1.87
8,E11Q,1.94
9,E11D,2.37
10,E11F,1.97
11,E11A,2.29
12,E11S,1.78
13,E11K,2.63
14,E11R,2.24
15,E11W,2.02
16,K24W,2.54
17,K24S,2.8
18,K24Q,2.9
19,K24Y,2.49
20,K24A,2.72
21,K24D,2.68
22,K24F,2.21
23,K24N,2.32
24,K24T,2.5
25,K24H,2.59
26,K24V,2.49

row,Variant,protein stability index
1,K24P,2.29
2,K24R,2.9
3,K24L,2.12
4,K24G,2.11
5,K24I,1.89
6,K24C,2.23
7,K24E,2.83
8,K24M,2.36
9,D18P,2.47
10,D18Y,1.5
11,D18C,1.9
12,D18A,2.38
13,D18E,2.65
14,D18I,1.92
15,D18V,2.45
16,D18R,2.03
17,D18G,2.38
18,D18F,2.04
19,D18M,2.22
20,D18T,2.56
21,D18N,2.3
22,D18S,2.92
23,D18W,2.17
24,D18L,2.22
25,D18Q,2.25
26,D18K,1.76

row,Variant,protein stability index
1,D18H,2.38
2,L10I,2.34
3,L10F,2.31
4,L10T,3.16
5,L10N,3.33
6,L10H,2.75
7,L10S,3.15
8,L10D,3.56
9,L10E,3.35
10,L10A,2.47
11,L10G,2.78
12,L10R,2.75
13,L10C,2.21
14,L10Y,2.84
15,L10W,2.27
16,L10Q,3.39
17,L10P,2.92
18,L10V,2.11
19,L10M,2.43
20,L10K,3.46
21,E19P,2.79
22,E19G,2.36
23,E19W,2.12
24,E19H,2.05
25,E19D,2.92
26,E19A,2.47

row,Variant,protein stability index
1,E19R,1.63
2,E19M,2.53
3,E19Q,2.33
4,E19K,2.37
5,E19C,2.15
6,E19S,2.33
7,E19T,2.42
8,E19N,2.86
9,E19Y,2.39
10,E19I,2.37
11,E19F,2.51
12,E19V,2.32
13,E19L,2.6
14,K23F,2.07
15,K23I,2.66
16,K23C,2.3
17,K23T,1.81
18,K23L,2.53
19,K23R,2.34
20,K23Q,2.81
21,K23P,2.33
22,K23N,2.66
23,K23E,2.81
24,K23W,2.38
25,K23D,3.12
26,K23V,2.67

row,Variant,protein stability index
1,K23H,2.63
2,K23A,2.36
3,K23Y,2.2
4,K23G,2.27
5,K23M,2.25
6,K23S,2.7
7,Y9I,1.8
8,Y9Q,2.91
9,Y9P,2.9
10,Y9F,1.99
11,Y9D,3.15
12,Y9L,2.63
13,Y9A,2.85
14,Y9M,2.48
15,Y9W,1.67
16,Y9R,3.09
17,Y9G,3.27
18,Y9N,3.67
19,Y9V,2.2
20,Y9H,3.1
21,Y9C,2.18
22,Y9K,3.08
23,Y9T,2.5
24,Y9E,3.04
25,Y9S,2.73
26,H21N,3.07

row,Variant,protein stability index
1,H21V,2.28
2,H21T,2.69
3,H21Q,2.66
4,H21M,2.69
5,H21K,2.55
6,H21I,1.98
7,H21L,2.25
8,H21R,2.37
9,H21A,2.93
10,H21G,2.5
11,H21F,2.46
12,H21W,2.34
13,H21D,3.02
14,H21P,2.41
15,H21C,2.28
16,H21Y,2.37
17,H21S,2.6
18,H21E,2.85
19,G22T,2.43
20,G22H,3
21,G22I,2.25
22,G22S,2.6
23,G22L,2.34
24,G22C,2.35
25,G22R,2.51
26,G22K,2.23

row,Variant,protein stability index
1,G22E,2.56
2,G22F,1.97
3,G22Y,1.98
4,G22W,2.23
5,G22D,2.15
6,G22Q,2.36
7,G22P,2.48
8,G22M,2.62
9,G22N,2.71
10,G22V,2.12
11,G22A,2.54
12,A8P,2.84
13,A8R,2.34
14,A8D,3.39
15,A8T,2.64
16,A8E,3.27
17,A8M,2.68
18,A8F,2.26
19,A8Q,3.08
20,A8H,2.72
21,A8V,2.31
22,A8I,2.4
23,A8N,2.83
24,A8L,1.88
25,A8Y,1.79
26,A8S,3.06

row,Variant,protein stability index
1,A8G,3.04
2,A8K,2.91
3,A8C,2.09
4,E16C,2
5,E16H,2.08
6,E16R,2.39
7,E16S,2.8
8,E16Y,1.56
9,E16F,1.53
10,E16N,2.15
11,E16T,2.36
12,E16G,2.5
13,E16D,2.34
14,E16P,2.25
15,E16I,2.07
16,E16Q,2.55
17,E16V,1.87
18,E16K,2.87
19,E16W,1.94
20,E16L,2.29
21,E16A,2.4
22,E16M,1.93
23,Q20S,2.58
24,Q20M,2.03
25,Q20R,2.67
26,Q20P,2.4

row,Variant,protein stability index
1,Q20Y,2.47
2,Q20G,2.32
3,Q20C,2.09
4,Q20D,2.93
5,Q20L,2.54
6,Q20A,2.23
7,Q20K,2.64
8,Q20V,2.84
9,Q20E,2.52
10,Q20T,2.44
11,Q20W,2.46
12,Q20N,2.55
13,Q20F,2.49
14,Q20I,2.03
15,Q20H,2.47
